Experiments:
[1] = compound: CCSc1nc2c(N)ncnc2n1[C@@H]1O[C@H](COP(=O)(O)O)[C@@H](O)[C@H]1O; assay: Inhibitory constant of rat adenylate kinase (AK II) isozymes expressed as relative maximal velocity
[2] = compound: CC(=O)NCCCCCCCCNc1ncnc2c1ncn2C1O[C@H](COP(=O)(O)O)[C@@H](O)[C@H]1O; assay: (§1) Inhibitory constant of rat adenylate kinase (AK III) isozymes expressed as relative maximal velocity
[3] = compound: CCCCN(CCCC)c1ncnc2c1ncn2C1O[C@H](COP(=O)(O)OP(=O)(O)OP(=O)(O)O)[C@@H](O)[C@H]1O; assay: as §1
[4] = compound: CCCCNc1ncnc2c1ncn2C1O[C@H](COP(=O)(O)OP(=O)(O)OP(=O)(O)O)[C@@H](O)[C@H]1O; assay: as §1
[5] = compound: CCCCSc1ncnc2c1ncn2C1O[C@H](COP(=O)(O)OP(=O)(O)OP(=O)(O)O)[C@@H](O)[C@H]1O; assay: as §1
[6] = compound: Nc1ncnc2c1ncn2[C@@H]1O[C@H](COP(=O)(O)O)[C@@H](O)[C@H]1O; assay: as §1
[7] = compound: O=C(CI)NCCCCCNc1ncnc2c1ncn2C1O[C@H](COP(=O)(O)OP(=O)(O)OP(=O)(O)O)[C@@H](O)[C@H]1O; assay: as §1
[8] = substrate: CC(=O)NCCNc1ncnc2c1ncn2C1O[C@H](COP(=O)(O)O)[C@@H](O)[C@H]1O; assay: Rat Adenylate kinase III and maximal velocity was determined
[9] = substrate: CCCCNc1ncnc2c1ncn2C1O[C@H](COP(=O)(O)OP(=O)(O)OP(=O)(O)O)[C@@H](O)[C@H]1O; assay: (§2) Concentration for half-maximal velocity for adenylate kinase (AK III) was determined
[10] = substrate: CCCCSc1ncnc2c1ncn2C1O[C@H](COP(=O)(O)OP(=O)(O)OP(=O)(O)O)[C@@H](O)[C@H]1O; assay: as §2
[11] = substrate: Nc1ncnc2c1ncn2[C@@H]1O[C@H](COP(=O)(O)O)[C@@H](O)[C@H]1O; assay: as §2
[12] = substrate: O=C(CI)NCCCCCNc1ncnc2c1ncn2C1O[C@H](COP(=O)(O)OP(=O)(O)OP(=O)(O)O)[C@@H](O)[C@H]1O; assay: as §2

B1: GTP:AMP phosphotransferase AK3, mitochondrial (Rattus norvegicus), P29411 (protein)
chain: MGASGRLLRAVIMGAPGSGKGTGSSRITKHFELKHLSSGDLLRQNMLQGTEIAVLAKSFIDQGKLIPDDDMTRLALHELKNLTQCSWLLDGFPRTLPQAEALDRVYQIDTVINLNVPFEVIKLRLTARWIHPASGRVYNIEFNPPKTVGIDDLTGEPLIQREDDKPETVIKRLKAYEAQTEPVLQYYQKKGVLETFSGTETNKIRPHVYSFLQMKVPETIQKASVTP
[1]
  Vmax: 0%
[2]
  Vmax: 0%
[3]
  Vmax: 0%
[4]
  Vmax: 25%
[5]
  Vmax: 57%
[6]
  Vmax: 100%
[7]
  Vmax: 9%
[8]
  Vmax: 0%
[9]
  Km: 1200 µM
[10]
  Km: 1450 µM
[11]
  Km: 90 µM
[12]
  Km: 400 µM

— ChEMBL document CHEMBL1122067, “Species- or isozyme-specific enzyme inhibitors. 4. Design of a two-site inhibitor of adenylate kinase with isozyme selectivity” (J Med Chem, 1982)
